Targets include LMO7, Q8WWI1; PTPN13_2, Q12923; PREX1_1, Q8TCU6; NHERF2_1, Q15599; MAGI1_3, Q96QZ7; CNKSR3, Q6P9H4; ARHGEF12, Q9NZN5-2; PDZD9, Q8IXQ8; IL16_2, Q14005; DLG5_2, Q8TDM6.
What all share (test): holdup assay
What all share (parameters): key: below the threshold = too weak to quantify, mostly under pKd 3.1 to 4
Holding throughout (settings): plain residues with an end cap or a label only (N-terminal biotin on a linker: ttds)

For a further assay, the target named is T1, NHERF3_2, Q5T2W1.
T1 sequence (Q5T2W1 129-225, limits assumed, looked up): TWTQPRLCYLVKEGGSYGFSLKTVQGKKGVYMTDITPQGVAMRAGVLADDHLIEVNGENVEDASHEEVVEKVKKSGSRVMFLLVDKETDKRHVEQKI

The target of another assay is T2, DVL1, O14640.
T2 sequence (O14640 246-333, limits assumed, looked up): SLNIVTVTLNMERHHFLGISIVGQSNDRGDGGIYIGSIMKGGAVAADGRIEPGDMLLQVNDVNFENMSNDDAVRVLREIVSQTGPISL

The target of the next assay is T3, PDZD2_3, O15018.
T3 sequence (O15018 581-682, limits assumed, looked up): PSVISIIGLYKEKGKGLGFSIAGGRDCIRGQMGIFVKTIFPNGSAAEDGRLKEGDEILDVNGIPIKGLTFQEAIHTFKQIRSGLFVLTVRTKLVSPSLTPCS

A further assay deals with T4, USH1C_2, Q9Y6N9.
T4 sequence (Q9Y6N9 206-303, limits assumed, looked up): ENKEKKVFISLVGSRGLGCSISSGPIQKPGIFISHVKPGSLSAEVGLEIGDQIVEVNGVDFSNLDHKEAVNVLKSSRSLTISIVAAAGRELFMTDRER

Another assay concerns the target T5, PTPN13_4, Q12923.
T5 sequence (Q12923 1783-1878, limits assumed, looked up): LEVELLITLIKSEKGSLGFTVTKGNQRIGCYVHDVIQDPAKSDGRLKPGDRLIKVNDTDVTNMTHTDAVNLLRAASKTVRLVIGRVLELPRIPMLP

The next assay concerns the target T6, APBA3_2, O96018.
T6 sequence (O96018 480-570, limits assumed, looked up): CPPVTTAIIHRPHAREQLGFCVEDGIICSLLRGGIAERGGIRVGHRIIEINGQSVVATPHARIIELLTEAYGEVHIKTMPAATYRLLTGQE

The next assay deals with T7, SHANK3, Q9BYB0.
T7 sequence (Q9BYB0 641-750, limits assumed, looked up): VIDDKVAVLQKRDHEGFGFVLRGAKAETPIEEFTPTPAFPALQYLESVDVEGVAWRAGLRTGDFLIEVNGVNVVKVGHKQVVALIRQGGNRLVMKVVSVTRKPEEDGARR

For another assay, the target named is T8, SNTG1, Q9NSN8.
T8 sequence (Q9NSN8 52-150, limits assumed, looked up): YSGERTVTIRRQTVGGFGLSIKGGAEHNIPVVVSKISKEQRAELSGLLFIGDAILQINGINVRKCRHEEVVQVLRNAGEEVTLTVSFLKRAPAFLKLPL

Another assay has as its target T9, SHROOM3, Q8TF72.
T9 sequence (Q8TF72 20-120, limits assumed, looked up): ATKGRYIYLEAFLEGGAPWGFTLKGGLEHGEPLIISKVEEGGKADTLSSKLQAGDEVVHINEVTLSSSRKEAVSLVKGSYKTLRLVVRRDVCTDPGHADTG

A further assay deals with T10, TJP3_2, O95049.
T10 sequence (O95049 190-282, limits assumed, looked up): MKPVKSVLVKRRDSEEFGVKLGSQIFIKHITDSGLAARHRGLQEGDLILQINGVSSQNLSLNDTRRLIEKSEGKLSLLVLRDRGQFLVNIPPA

Another assay addresses T11, NHERF1_2, O14745.
T11 sequence (O14745 149-244, limits assumed, looked up): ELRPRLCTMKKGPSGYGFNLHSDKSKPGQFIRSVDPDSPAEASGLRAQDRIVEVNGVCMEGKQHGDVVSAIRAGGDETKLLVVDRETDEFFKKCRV

In the next assay the target is T12, PTPN13_5, Q12923.
T12 sequence (Q12923 1877-1975, limits assumed, looked up): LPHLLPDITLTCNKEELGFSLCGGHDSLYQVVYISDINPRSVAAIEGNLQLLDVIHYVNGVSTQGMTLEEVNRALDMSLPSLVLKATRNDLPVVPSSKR

Another assay addresses T13, PDZD2_1, O15018.
T13 sequence (O15018 80-192, limits assumed, looked up): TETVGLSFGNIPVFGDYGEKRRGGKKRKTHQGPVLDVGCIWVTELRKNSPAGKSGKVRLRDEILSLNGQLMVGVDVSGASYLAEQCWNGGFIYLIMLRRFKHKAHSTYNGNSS

What is called pKd is −log10 of the Kd, conventionally taken in molar units.

PTPN13_2, Q12923, sequence (Q12923 1363-1462): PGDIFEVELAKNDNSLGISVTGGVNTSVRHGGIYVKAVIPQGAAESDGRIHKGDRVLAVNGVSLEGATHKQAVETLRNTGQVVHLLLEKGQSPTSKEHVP
PDZD9, Q8IXQ8, sequence (Q8IXQ8 23-120): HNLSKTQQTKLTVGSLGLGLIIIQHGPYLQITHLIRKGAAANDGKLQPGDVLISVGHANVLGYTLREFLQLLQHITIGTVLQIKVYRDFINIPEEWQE
IL16_2, Q14005, sequence (Q14005 350-450): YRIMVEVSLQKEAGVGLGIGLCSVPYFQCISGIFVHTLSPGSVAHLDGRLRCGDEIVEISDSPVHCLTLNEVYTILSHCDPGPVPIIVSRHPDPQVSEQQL
MAGI1_3, Q96QZ7, sequence (Q96QZ7 638-725): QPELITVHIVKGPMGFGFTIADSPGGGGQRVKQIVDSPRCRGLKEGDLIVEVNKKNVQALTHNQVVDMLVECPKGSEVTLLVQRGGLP
DLG5_2, Q8TDM6, sequence (Q8TDM6 714-800): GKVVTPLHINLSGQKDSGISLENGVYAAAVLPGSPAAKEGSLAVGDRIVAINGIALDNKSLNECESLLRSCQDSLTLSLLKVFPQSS
ARHGEF12, Q9NZN5-2, sequence (Q9NZN5 other isoform, or with tags, fused parts or gaps): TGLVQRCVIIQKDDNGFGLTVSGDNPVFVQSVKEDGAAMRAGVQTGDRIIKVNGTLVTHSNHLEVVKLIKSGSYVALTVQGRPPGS
LMO7, Q8WWI1, sequence (Q8WWI1 1037-1138): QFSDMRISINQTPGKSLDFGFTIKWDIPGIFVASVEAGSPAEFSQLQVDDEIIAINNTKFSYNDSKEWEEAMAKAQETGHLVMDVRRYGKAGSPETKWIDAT
PREX1_1, Q8TCU6, sequence (Q8TCU6 608-718): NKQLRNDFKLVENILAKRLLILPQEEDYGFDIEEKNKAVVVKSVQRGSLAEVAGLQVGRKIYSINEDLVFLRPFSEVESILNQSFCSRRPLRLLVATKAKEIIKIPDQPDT
NHERF2_1, Q15599, sequence (Q15599 9-91): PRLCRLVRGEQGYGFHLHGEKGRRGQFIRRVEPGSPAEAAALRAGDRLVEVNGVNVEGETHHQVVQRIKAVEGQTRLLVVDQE
CNKSR3, Q6P9H4, sequence (Q6P9H4 203-303): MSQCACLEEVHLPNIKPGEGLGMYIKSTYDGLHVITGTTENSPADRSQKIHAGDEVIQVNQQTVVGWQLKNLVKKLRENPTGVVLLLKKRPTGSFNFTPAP

Regarding RTRQRNETQV [HPV51-E6, P26554], the pKd entry in the assay with NHERF3_2, Q5T2W1 is “below the threshold”; with LMO7, Q8WWI1, “below the threshold”; with PTPN13_2, Q12923, “below the threshold”; with DVL1, O14640, 4.86; in the assay with PREX1_1, Q8TCU6 it was “below the threshold”; with PDZD2_3, O15018 it was 4.22. The pKd entry with USH1C_2, Q9Y6N9 is “below the threshold”; in the assay with PTPN13_4, Q12923 it was “below the threshold”; with NHERF2_1, Q15599, “below the threshold”; with APBA3_2, O96018 it was “below the threshold”; with SHANK3, Q9BYB0 it was “below the threshold”; with MAGI1_3, Q96QZ7, “below the threshold”. Also, the pKd was 3.98 in the assay with SNTG1, Q9NSN8; “below the threshold” in the assay with SHROOM3, Q8TF72; “below the threshold” with CNKSR3, Q6P9H4; “below the threshold” with TJP3_2, O95049; 3.73 with ARHGEF12, Q9NZN5-2; “below the threshold” with PDZD9, Q8IXQ8. Further, the negative logarithm of the Kd (pKd) result with NHERF1_2, O14745 is “below the threshold”; in the assay with IL16_2, Q14005 it was “below the threshold”; in the assay with DLG5_2, Q8TDM6, 4.63; with PTPN13_5, Q12923, “below the threshold”; with PDZD2_1, O15018, “below the threshold”.

For the origin of these results see article PMC9482650, “Quantitative fragmentomics allow affinity mapping of interactomes” (Nature Communications, 2022).
